Five molecules from patent US20230101046A1, “ANAPLASTIC LYMPHOMA KINASE CHIMERIC ANTIGEN RECEPTORS AND METHODS OF USE” (The Children's Medical Center Corporation, priority 2020, published 2023) can be followed below.

Sequences and labels used below:
B1: ALK Antibody 7: mouse hybridoma anti-ALK antibody against extracellular domain of human ALK receptor; VL/VH sequences in Tables 1 and 2 (antibody, V domains shown)
VH: QVQLQQSGAELAKPGASVKLSCKASGYTFTSYWMHWVKQRPGQGLEWIGYINPSSGYTKYNQKFKDKATLTADKSSSTAYMQLSSLTFEDSAVYYCARDYYGSSSWFAYWGQGTLVTVSA
VL: DIVMTQSQKFMSTSVGDRVSVTCKASQNVGTNVAWYQQKPGHSPKALIYSASYRYSGVPDRFTGSGSGTDFTLTISNVQSEDLAEYFCQRYNSYPYMFTFGGGTKLEIKR
B2: ALK Antibody 5: mouse hybridoma anti-ALK antibody against extracellular domain of human ALK receptor; VL/VH sequences in Tables 1 and 2 (antibody, V domains shown)
VH: B1 VH with N52K, F88Y
VL: B1 VL with K9R, H42Q, R90Q, F98Y
B3: ALK Antibody 6: mouse hybridoma anti-ALK antibody against extracellular domain of human ALK receptor; VL/VH sequences in Tables 1 and 2 (antibody, V domains shown)
VH: DVKLVESGEGLVKPGGSLKLSCAASGFTFSSYAMSWVRQTPEKRLEWVTYISSGGDYIYYADTVKGRFTISRDNARNTLYLQMSSLKSEDTAMYYCTRERIWLRRFFDVWGTGTTVTVSS
VL: DIVMTQSQKFMSTSVGDRVSITCKASQNVGTAVAWYQLKPGQSPKLLIYSASNRFTGVPDRFTGSGSGTDFTLTISNMQSEDLADYFCQQYSSYPLTFGSGTKLEIKR
B4: ALK Antibody 3: mouse hybridoma anti-ALK antibody against extracellular domain of human ALK receptor; VL/VH sequences in Tables 1 and 2 (antibody, V domains shown)
VH: B1 VH with S31N, F88Y
VL: B1 VL with K9R, H42Q, I75V, R90Q, F98Y
B5: ALK Antibody 1: mouse hybridoma anti-ALK antibody against extracellular domain of human ALK receptor; VL/VH sequences in Tables 1 and 2 (antibody, V domains shown)
VH: QVQLQQSGAELVKPGASVKISCKASGYAFSSYWMNWVKQRPGKGLEWIGQIYPGDGDTNYNGKFKGKATLTADKSSSTAYMQLSSLTSEDSAVYFCASYYYGSKAYWGQGTLVTVSA
VL: DIQMTQSPASLAASVGETVTITCRASENIYYSLAWYQQKQGKSPQLLIYNANSLEDGVPSRFSGSGSGTQYSMKINSMQPEDTATYFCKQAYDVPFTFGSGTKLEIKR

Where a chain is given by its changes, count along the chain named.

Sequence of Mouse-ALK (P97793 19-1621): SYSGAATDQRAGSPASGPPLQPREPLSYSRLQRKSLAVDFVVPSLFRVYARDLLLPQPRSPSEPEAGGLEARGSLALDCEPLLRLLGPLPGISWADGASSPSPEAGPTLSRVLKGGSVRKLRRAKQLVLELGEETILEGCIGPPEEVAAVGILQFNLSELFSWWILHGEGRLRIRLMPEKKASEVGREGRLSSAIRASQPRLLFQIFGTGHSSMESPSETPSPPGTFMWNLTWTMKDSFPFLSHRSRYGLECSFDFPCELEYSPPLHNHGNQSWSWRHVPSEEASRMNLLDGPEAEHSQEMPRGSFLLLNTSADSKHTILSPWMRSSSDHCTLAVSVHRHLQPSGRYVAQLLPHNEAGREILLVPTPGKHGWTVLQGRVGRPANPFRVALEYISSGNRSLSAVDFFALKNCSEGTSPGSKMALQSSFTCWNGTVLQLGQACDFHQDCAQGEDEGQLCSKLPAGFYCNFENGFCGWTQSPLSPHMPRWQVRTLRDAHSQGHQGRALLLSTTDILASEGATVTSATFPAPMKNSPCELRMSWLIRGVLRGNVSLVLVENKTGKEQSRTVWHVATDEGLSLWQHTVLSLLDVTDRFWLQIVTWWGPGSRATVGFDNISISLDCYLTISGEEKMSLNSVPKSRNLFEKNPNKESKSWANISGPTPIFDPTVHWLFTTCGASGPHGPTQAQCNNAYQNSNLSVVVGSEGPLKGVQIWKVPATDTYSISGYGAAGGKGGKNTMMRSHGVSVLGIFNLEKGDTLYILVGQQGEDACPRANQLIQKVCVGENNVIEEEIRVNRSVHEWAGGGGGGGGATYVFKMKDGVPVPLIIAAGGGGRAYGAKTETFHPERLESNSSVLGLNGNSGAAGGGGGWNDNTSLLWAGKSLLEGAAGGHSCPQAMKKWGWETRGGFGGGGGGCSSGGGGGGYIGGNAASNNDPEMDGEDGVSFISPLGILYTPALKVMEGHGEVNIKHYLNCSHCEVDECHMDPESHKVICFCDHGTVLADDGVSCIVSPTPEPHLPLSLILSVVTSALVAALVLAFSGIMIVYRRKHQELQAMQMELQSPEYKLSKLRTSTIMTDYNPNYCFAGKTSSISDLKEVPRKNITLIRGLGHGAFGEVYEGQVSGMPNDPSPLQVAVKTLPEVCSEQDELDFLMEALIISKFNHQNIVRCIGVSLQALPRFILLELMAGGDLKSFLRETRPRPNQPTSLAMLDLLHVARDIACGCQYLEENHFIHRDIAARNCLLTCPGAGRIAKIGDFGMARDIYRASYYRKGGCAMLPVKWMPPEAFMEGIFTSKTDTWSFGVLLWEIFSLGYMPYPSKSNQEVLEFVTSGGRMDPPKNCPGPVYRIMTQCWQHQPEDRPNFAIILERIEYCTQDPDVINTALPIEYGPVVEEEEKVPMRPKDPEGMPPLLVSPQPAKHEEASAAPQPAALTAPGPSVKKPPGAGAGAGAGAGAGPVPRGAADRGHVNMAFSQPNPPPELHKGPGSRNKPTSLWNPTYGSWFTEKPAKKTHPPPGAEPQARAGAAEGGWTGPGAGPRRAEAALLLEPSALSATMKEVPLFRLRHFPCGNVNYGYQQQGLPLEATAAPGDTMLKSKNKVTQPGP

The first assay concerns the target Mouse-ALK (Mus musculus, UniProt P97793). Description: Mouse-ALK binding of ALK antibodies. The protocol: (§1) Seven (7) ALK-specific antibodies (ALK Antibodies #1-#7) directed against the extracellular domain of human ALK receptor were evaluated for use in CAR-based immunotherapy.
For the molecule B1, the “recognition of human and murine ALK” value was “recognize both the human and murine ALK”. Still for that read-out and setting: the entry for B2 is “recognize both the human and murine ALK”; for B3 it is “recognize both the human and murine ALK”.

The target in another assay is ALK (Homo sapiens, UniProt Q9UM73). Description: ALK phosphorylation / ALK signaling activity of ALK antibodies. The assay is classed as cell-based. The protocol: as §1
Sequence of ALK (Q9UM73 19-1620): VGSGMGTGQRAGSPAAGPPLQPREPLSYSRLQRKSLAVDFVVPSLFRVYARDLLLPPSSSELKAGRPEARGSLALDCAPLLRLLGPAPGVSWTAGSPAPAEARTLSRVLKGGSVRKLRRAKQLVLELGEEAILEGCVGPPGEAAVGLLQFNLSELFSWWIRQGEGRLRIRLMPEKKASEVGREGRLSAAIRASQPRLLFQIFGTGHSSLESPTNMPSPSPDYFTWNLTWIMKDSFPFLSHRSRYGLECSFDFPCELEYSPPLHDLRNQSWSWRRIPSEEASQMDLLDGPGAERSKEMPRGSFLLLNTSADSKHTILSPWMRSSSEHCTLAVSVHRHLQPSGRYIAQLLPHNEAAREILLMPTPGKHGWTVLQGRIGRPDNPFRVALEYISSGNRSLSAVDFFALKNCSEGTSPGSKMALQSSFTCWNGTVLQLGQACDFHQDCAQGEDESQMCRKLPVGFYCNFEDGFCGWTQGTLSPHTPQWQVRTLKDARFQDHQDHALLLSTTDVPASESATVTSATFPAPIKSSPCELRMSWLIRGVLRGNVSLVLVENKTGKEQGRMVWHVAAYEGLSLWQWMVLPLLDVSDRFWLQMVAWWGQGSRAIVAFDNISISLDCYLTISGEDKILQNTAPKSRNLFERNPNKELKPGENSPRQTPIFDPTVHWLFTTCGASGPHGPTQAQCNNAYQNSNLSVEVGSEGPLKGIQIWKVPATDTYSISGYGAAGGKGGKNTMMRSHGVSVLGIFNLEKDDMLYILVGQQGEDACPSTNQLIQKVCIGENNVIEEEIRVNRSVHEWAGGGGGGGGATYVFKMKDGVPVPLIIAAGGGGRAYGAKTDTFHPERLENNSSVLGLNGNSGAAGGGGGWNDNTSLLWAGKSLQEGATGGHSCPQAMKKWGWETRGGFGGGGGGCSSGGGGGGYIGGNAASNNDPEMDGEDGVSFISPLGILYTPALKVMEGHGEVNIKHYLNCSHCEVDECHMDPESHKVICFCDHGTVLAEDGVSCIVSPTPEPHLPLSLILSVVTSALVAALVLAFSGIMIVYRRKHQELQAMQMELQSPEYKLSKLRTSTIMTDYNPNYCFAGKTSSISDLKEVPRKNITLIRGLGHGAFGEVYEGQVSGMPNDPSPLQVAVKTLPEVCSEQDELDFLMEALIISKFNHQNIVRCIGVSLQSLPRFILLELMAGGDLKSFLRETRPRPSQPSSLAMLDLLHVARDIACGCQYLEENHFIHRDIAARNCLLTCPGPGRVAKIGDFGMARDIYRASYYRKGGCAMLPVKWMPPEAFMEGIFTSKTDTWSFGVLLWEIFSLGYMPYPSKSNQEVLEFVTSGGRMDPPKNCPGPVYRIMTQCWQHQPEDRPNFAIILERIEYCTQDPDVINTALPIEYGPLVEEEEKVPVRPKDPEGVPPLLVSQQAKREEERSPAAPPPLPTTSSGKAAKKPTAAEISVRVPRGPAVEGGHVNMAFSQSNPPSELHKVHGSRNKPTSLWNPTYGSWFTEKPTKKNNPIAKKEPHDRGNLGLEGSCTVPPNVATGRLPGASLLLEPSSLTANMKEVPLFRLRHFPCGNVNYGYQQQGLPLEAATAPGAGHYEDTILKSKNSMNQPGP
As to B1, the “activity on ALK signaling” value was “agonistic of ALK signaling”. Still for that read-out and setting: with B4 the entry was “inhibited ALK signaling”; with B2, “inhibited ALK signaling”; with B3, “inhibited ALK signaling”.

With B5, the “activity on ALK signaling” value is on record as “no effect on ALK signaling”.
